Assay results as given in publication PMC11220700, “Activation and Purification of ß‐Glucocerebrosidase by Exploiting its Transporter LIMP‐2 – Implications for Novel Treatment Strategies in Gaucher's and Parkinson's Disease” (Advanced Science, 2024).
*: point of attachment. Biotin = O=C1N[C@H]2[C@H](CS[C@H]2CCCCC(=O)*)N1

Molecular target: imiglucerase/Cerezyme (recombinant GCase, Sanofi Genzyme), P04062
Sequence (P04062 40-536): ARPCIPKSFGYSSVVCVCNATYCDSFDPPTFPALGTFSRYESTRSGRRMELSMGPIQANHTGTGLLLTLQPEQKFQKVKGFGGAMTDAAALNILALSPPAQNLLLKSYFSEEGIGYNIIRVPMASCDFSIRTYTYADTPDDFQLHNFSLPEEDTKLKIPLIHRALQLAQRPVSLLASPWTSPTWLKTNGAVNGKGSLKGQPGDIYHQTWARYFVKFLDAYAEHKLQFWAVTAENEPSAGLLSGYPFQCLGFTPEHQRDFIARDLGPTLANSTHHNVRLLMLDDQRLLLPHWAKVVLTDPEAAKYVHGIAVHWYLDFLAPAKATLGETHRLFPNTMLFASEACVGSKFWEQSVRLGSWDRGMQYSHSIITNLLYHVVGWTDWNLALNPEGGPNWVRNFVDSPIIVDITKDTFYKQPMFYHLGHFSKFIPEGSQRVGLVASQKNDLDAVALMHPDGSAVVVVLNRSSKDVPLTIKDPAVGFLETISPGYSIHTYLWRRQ

Q: How did the other turn out when Biotin-KFERQGSGSQVHFLREIIEAMLKAYQSGSGYGRKKRRQRRR-NH2 [L2H5‐wt peptide (LIMP‐2‐derived helix 5 peptide)] was run?
A: 2.63 fold
